For 1 substance, pseudovirus entry, percentage of usage (min-max scaled), without hTMPRSS2 results are on record in article doi:10.1101/2024.11.22.624870.

The assay deals with camel APN (aminopeptidase N) (camel).

Substance “hCoV/229E-inf1 spike protein (S) (from UniProt P15423 16-1173) (natural protein)” returned a pseudovirus entry, percentage of usage (min-max scaled), without hTMPRSS2 of 3%.
